# Results published in IntAct's records for PubMed 38225382.
# Assays:
# tri37_human TRIM37 = tri37_human TRIM37 (UniProt O94972)
# pex3_human PEX3 = pex3_human PEX3 (UniProt P56589)
# pex3_human PEX3, sequence (P56589 whole entry): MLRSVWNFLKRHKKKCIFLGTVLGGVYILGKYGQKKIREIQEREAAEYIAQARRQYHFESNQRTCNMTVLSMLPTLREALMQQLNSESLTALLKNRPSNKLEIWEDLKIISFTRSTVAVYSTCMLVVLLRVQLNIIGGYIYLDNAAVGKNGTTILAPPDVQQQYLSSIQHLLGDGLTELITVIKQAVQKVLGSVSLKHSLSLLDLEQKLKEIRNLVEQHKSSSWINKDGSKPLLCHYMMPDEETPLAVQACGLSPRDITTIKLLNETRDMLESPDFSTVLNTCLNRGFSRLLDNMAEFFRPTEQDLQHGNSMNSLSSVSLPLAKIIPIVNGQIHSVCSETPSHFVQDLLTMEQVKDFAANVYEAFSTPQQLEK
# tri37_human TRIM37, sequence (O94972 whole entry): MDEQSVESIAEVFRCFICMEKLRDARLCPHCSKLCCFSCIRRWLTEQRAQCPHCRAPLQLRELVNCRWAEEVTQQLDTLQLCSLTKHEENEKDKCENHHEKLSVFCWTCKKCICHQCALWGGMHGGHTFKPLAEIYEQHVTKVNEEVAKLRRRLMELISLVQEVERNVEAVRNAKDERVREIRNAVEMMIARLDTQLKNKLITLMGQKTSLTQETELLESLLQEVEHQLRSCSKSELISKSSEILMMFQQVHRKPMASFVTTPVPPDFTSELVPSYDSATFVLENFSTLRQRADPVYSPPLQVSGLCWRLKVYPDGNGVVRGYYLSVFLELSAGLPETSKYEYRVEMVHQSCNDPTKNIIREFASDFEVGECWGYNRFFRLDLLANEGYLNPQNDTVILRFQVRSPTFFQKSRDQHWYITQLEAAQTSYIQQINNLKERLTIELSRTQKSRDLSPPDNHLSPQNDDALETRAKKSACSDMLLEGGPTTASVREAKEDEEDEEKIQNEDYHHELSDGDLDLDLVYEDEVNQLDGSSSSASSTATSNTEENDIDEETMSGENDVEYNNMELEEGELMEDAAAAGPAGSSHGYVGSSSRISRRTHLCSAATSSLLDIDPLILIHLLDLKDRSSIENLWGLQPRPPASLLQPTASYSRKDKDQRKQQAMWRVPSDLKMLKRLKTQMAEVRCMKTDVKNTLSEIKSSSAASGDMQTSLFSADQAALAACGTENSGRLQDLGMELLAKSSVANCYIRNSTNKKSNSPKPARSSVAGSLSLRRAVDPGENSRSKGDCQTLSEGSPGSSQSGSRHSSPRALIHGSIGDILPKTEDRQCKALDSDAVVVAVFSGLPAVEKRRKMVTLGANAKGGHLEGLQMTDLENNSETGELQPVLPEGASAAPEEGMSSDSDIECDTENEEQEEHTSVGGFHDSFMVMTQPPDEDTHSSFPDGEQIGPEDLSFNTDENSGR
# Peroxisomal membrane protein PEX16 (Homo sapiens), Q9Y5Y5 W189G, sequence (Q9Y5Y5 whole entry W189G): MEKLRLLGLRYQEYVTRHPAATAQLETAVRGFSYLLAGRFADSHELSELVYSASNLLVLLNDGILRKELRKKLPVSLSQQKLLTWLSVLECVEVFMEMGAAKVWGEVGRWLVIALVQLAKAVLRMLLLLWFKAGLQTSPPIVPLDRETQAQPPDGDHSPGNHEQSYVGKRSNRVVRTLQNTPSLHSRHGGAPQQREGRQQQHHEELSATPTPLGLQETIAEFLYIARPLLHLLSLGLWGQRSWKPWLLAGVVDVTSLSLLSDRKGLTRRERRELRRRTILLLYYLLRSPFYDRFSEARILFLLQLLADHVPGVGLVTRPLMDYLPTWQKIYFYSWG
# Peroxisomal membrane protein PEX16 (Homo sapiens), Q9Y5Y5 K169A, sequence (Q9Y5Y5 whole entry K169A): as the sequence (Q9Y5Y5 whole entry W189G) above, with K169A, G189W counted along it
Substance,effect of a mutation on the interaction (tri37_human TRIM37),effect of a mutation on the interaction (pex3_human PEX3)
"Bifunctional polynucleotide phosphatase/kinase (Homo sapiens), Q96T60 P112R",with no effect,
"Bifunctional polynucleotide phosphatase/kinase (Homo sapiens), Q96T60 S114D",with no effect,
"Peroxisomal membrane protein PEX16 (Homo sapiens), Q9Y5Y5 K169A",,with no effect
"Peroxisomal membrane protein PEX16 (Homo sapiens), Q9Y5Y5 W189G",,with no effect
